Literature values as cited in PMC4696766.
Read-outs that look alike come from different tables or passages of the source.

How the values were obtained:
[1] = biological target: histone H3 H3K9me2 peptide (UniProt P61830)
[2] = biological target: histone H3 H3K9me3 peptide (UniProt P61830)
[3] = biological target: Histone H3 (Homo sapiens) (UniProt P68431)
[4] = biological target: Histone H3 (Homo sapiens) (UniProt P68431); remark: listed apart in the source
[5] = biological target: Histone H3 (Homo sapiens) (UniProt P68431); remark: listed apart in the source
[6] = biological target: Histone H3 (Homo sapiens) (UniProt P68431); remark: listed apart in the source
[7] = biological target: Histone H3 (Homo sapiens) (UniProt P68431); remark: listed apart in the source
[8] = biological target: histone H3 H3K4me3 peptide (UniProt P61830)
[9] = biological target: histone H3 H3K4me3 peptide (UniProt P61830); remark: listed apart in the source
[10] = biological target: histone H3 H3K4me2 peptide (UniProt P61830)
[11] = biological target: Histone H4 (Homo sapiens) (UniProt P62805)
[12] = biological target: Histone H4 (Homo sapiens) (UniProt P62805); assay: NMR
[13] = biological target: Histone H3 (Homo sapiens) (UniProt P68431); remark: listed apart in the source
[14] = biological target: Histone H3 (Homo sapiens) (UniProt P68431); remark: listed apart in the source
[15] = biological target: histone H3 H3K9me2 peptide (UniProt P61830); remark: listed apart in the source
[16] = biological target: Histone H3 (Arabidopsis thaliana) (UniProt P59226)
PIWI (Homo sapiens) = PIWI (Homo sapiens) (UniProt Q96J94)
[17] = biological target: Histone H3 (Homo sapiens) (UniProt P68431); remark: listed apart in the source
histone H3 1-10 = histone H3 1-10 (UniProt P61830)
[18] = biological target: Histone H3 (Homo sapiens) (UniProt P68431); remark: listed apart in the source
di-γH2A.X (Homo sapiens) = di-γH2A.X (Homo sapiens) (UniProt P16104)
γH2A.X (Homo sapiens) = γH2A.X (Homo sapiens) (UniProt P16104)
[19] = biological target: histone H3 H3K4me3 peptide (UniProt P61830); remark: listed apart in the source
[20] = biological target: histone H4 H4K20me3 peptide (UniProt P62805)
[21] = biological target: Histone H3 (Arabidopsis thaliana) (UniProt P59226); remark: listed apart in the source
[22] = biological target: Histone H3 (Drosophila melanogaster) (UniProt P02299)
[23] = biological target: histone H3 H3K9me3 peptide (UniProt P61830); remark: listed apart in the source
[24] = biological target: histone H4 H4K20me2 peptide (UniProt P62805)

Chain of UHRF1 PHD finger (Q96T88 310-366): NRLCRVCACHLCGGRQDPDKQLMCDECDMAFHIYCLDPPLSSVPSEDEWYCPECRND
Chain of 14-3-3ζ (P63104 whole entry): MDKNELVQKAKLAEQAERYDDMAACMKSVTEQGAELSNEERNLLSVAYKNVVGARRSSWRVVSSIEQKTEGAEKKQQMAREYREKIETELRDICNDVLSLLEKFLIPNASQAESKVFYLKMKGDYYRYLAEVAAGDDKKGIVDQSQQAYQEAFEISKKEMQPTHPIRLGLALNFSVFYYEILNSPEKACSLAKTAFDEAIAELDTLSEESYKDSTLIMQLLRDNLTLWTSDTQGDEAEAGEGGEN
Chain of MCPH1 tandem BRCT domains (Q8NEM0 640-833): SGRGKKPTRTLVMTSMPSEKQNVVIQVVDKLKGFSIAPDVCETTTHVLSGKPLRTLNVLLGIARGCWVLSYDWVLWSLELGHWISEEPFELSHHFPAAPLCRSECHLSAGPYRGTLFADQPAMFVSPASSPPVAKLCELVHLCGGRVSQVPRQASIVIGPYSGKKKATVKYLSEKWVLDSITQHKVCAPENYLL
Chain of BHC80 PHD finger (Q96BD5 whole entry): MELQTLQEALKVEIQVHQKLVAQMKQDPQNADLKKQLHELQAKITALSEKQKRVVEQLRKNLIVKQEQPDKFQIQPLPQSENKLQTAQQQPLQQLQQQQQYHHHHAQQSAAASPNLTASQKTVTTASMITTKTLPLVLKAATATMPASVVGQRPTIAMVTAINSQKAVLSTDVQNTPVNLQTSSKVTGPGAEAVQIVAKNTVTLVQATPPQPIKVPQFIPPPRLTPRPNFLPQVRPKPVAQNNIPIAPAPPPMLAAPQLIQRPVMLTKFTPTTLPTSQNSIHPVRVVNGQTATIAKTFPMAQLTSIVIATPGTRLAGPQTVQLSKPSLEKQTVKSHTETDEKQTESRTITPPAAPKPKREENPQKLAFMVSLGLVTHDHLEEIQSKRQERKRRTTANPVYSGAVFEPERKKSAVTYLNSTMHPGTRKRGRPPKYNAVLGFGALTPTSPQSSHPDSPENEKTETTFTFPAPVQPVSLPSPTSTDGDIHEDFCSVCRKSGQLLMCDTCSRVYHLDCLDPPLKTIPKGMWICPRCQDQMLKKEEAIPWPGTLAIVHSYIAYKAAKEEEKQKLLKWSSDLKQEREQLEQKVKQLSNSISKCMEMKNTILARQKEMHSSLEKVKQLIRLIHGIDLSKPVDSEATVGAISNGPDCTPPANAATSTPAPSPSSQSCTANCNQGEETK
Chain of HP1 chromodomain (P05205 24-82): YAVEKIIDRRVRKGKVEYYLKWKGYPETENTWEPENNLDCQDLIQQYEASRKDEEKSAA
Chain of JMJD2A tandem Tudor (O75164 897-1011): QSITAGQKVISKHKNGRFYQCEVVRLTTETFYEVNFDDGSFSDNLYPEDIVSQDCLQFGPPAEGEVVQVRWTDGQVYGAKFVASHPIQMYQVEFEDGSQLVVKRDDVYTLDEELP
Chain of G9a ankyrin repeats (Q96KQ7 649-879): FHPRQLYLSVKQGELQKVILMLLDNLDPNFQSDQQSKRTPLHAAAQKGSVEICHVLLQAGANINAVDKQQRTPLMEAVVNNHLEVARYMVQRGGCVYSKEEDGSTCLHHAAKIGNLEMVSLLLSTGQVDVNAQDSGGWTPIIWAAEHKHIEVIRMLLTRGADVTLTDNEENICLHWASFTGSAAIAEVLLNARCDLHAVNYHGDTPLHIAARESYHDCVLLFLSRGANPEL
Chain of CHD1 tandem chromodomains (O14646 272-452): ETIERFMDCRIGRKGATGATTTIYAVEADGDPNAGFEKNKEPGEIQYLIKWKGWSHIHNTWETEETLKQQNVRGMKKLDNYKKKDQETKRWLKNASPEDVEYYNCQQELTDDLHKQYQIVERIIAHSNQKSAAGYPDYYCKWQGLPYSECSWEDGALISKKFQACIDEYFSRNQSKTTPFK
Chain of UHRF1 tandem Tudor domain (Q96T88 133-283): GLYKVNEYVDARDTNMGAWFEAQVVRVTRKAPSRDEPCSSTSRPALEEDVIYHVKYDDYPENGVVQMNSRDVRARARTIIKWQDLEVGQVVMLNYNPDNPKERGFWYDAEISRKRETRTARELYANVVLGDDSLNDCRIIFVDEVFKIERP
Chain of SHH1 tandem Tudor (Q9XI47 138-244): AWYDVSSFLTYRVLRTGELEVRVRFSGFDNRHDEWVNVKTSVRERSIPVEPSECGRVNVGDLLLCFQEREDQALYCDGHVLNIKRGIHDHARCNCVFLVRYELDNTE
Chain of SHH1 tandem Tudor domains (Q9XI47 138-244): as above
Chain of 53BP1 tandem Tudor domains (Q12888 1484-1603): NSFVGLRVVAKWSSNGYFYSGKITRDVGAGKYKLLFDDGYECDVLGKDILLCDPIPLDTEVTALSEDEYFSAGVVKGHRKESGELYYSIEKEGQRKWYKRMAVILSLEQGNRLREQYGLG
Chain of 53BP1 tandem Tudor (Q12888 1484-1603): as above
Chain of UHRF1 tandem Tudor-PHD cassette (Q96T88 133-366): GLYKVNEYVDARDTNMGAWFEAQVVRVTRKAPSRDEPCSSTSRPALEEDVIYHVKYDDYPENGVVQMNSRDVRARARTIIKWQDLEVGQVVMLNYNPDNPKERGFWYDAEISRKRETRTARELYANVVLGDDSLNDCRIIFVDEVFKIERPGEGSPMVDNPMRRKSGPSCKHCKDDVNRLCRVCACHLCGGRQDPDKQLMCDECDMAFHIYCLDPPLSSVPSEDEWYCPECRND
Chain of SND1 extended Tudor domain (Q7KZF4 650-910): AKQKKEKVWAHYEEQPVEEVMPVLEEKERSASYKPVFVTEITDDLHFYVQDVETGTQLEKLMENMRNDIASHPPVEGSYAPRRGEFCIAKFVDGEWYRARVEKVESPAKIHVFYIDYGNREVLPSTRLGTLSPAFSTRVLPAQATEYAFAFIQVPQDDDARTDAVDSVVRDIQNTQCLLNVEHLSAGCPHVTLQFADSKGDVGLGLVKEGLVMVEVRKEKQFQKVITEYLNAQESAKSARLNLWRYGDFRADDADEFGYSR
Chain of P/CAF bromodomain (Q92831 720-830): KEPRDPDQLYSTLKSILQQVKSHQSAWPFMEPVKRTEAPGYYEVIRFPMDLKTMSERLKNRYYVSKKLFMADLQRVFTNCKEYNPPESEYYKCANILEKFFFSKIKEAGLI
Chain of DPF3 tandem PHD fingers (Q92784 259-366): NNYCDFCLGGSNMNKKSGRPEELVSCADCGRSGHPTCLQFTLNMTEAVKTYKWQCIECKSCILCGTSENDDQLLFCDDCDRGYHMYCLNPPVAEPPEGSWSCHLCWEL

SHH1 tandem Tudor (from UniProt Q9XI47)
Kd [1]: 1.9 µM

ATRX ADD (from UniProt P46100)
Kd [2]: 0.5 µM

UHRF1 tandem Tudor-PHD cassette (from UniProt Q96T88)
Kd [3]: 0.37 µM

UHRF1 tandem Tudor domain (from UniProt Q96T88)
Kd [4]: 1.75 µM

14-3-3ζ (from UniProt P63104)
Kd [5]: 23 µM
Kd [6]: 78 µM

CHD1 tandem chromodomains (from UniProt O14646)
Kd [7]: 5 µM
Kd [8]: 5 µM

BPTF PHD finger (from UniProt Q12830)
Kd [9]: 2.7 µM
Kd [10]: 5 µM

53BP1 tandem Tudor domains (from UniProt Q12888)
Kd [11]: 19.7 µM

P/CAF bromodomain (from UniProt Q92831)
Kd [12]: 346 µM

UHRF1 PHD finger (from UniProt Q96T88)
Kd [13]: 1.47 µM
Kd [14]: 2.1 µM

G9a ankyrin repeats (from UniProt Q96KQ7)
Kd [15]: 6 µM
Kd [16]: 6 µM

SND1 extended Tudor domain (from UniProt Q7KZF4)
Kd (PIWI (Homo sapiens)): 10 µM

DPF3 tandem PHD fingers (from UniProt Q92784)
Kd [17]: 0.5 µM

BHC80 PHD finger (from UniProt Q96BD5)
Kd (histone H3 1-10): 30 µM
Kd [18]: 30 µM

MCPH1 tandem BRCT domains (from UniProt Q8NEM0)
Kd (di-γH2A.X (Homo sapiens)): 4.4 µM
Kd (γH2A.X (Homo sapiens)): 0.7 µM

JMJD2A tandem Tudor (from UniProt O75164)
Kd [19]: 0.5 µM
Kd [20]: 0.4 µM

SHH1 tandem Tudor domains (from UniProt Q9XI47)
Kd [21]: 1.9 µM

HP1 chromodomain (from UniProt P05205)
Kd [22]: 2.5 µM
Kd [23]: 2.5 µM

53BP1 tandem Tudor (from UniProt Q12888)
Kd [24]: 19.7 µM
